# Measurements from US20240016917A1 (ACADEMIA SINICA, published 2024).
# B1: monoclonal antibody (mAb) m31A7 (antibody, V domains shown)
# VH: EVQLQQSGPEMVKPGASVKISCKTSGYTFTEYTIYWVKQSHGKSLEWLGGINPNIGDTTYNQKFKGKATLTVDTSSSTAYMELRSLTSEDSAVYYCAREVYNYSFAYWGQGTLVTVSA
# VL: DIVMSQSPSSLAVSVGEKVTMSCKSSQSLLYSSNQKNYLAWYQQKLGQTPKLLIYWASSRESGVPDRFTGSGSGTDFTLTISSVRAEDLAVYYCQQYYRYPLTFGVGTKLELKR
# How the values were obtained:
# [1] = biological target: T1, SARS-CoV-2 S protein (entire S ectodomain) (SARS-CoV-2, UniProt P0DTC2 14-1209)
# Beta = Beta (SARS-CoV-2)
# Alpha = Alpha (SARS-CoV-2)
# [2] = biological target: T1, SARS-CoV-2 S protein (entire S …); experiment: biolayer interferometry (BLI)
binder,measurement,setting,value
B1,EC50,[1],0.0312 nM
same,EC50,WT,0.0685 nM
same,EC50,D614G,0.0321 nM
same,EC50,Beta,0.0325 nM
same,EC50,Alpha,0.0446 nM
same,Kd,[2],0.0709 nM
